These results are taken from patent US20240084004A1 (INTERVET, published 2024).

Changes are numbered by the printed parent chain.

Assay [1] deals with T1, HIS-tagged extracellular domain of canine PD-1.
T1 construct: also called canine PD-1 ECD-8HIS; PD-1ECD-HIS
T1 chain: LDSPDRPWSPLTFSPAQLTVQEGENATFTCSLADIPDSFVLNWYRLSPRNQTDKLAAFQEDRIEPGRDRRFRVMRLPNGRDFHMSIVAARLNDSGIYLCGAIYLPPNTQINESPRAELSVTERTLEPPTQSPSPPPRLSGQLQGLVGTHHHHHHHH
Put plainly: ELISA on plate-coated HIS-tagged canine PD-1 ECD, two-fold dilutions of mAb, HRP goat anti-mouse IgG, TMB. On the procedure: Purified anti-canine PD-1 mAbs were tested for reactivity with the HIS-tagged ECD domain of canine PD-1 by ELISA as follows: HIS-tagged canine PD-1 ECD protein is diluted to 10 μg/mL in coating buffer (Carbonate/Bicarbonate pH 9.0) and dispensed at 100 μl/well in 96-well flat bottomed ELISA plates (NUNC). The plates are incubated at 4° C. overnight. The plates are then washed three times with phosphate buffered saline containing 0.05% Tween-20 (PBST). Next, 200 μl of blocking buffer (5% skim milk in PBST) is added to each well and the plates are incubated at 37° C. for 60 minutes. The plates are then washed three times with PBST. Next, 100 μl of test mAbs diluted in blocking buffer is added to the first wells of the appropriate columns. Test mAbs are then diluted two-fold to the appropriate plate position. Following incubation of the plates at 37° C. for 60 minutes, the plates are washed three times with PBST. Next, 100 μl per well of a 1:2,000 dilution of a horseradish peroxidase conjugated goat anti-mouse IgG (KPL) is added to the plates, which are then incubated at 37° C. for 60 minutes. Then the plates are washed three times with PBST, and 100 μl/well of 3,3′,5,5′ tetramethyl benzidine, (TMB) substrate (from KPL) is added to the plates. The color reaction is allowed to develop for 5-20 minutes at 37° C. prior to measuring absorbance at 650 nm.
In general terms: ELISA stands for enzyme-linked immunosorbent assay.

The target of assay [2] is T2, canine PD-1 expressed on CHO cells (canine).
T2 construct: CHO DXB11 cells transfected with plasmid p96793; also called cPD-1 CHO cells; CHO cell line expressing canine PD-1
T2 chain: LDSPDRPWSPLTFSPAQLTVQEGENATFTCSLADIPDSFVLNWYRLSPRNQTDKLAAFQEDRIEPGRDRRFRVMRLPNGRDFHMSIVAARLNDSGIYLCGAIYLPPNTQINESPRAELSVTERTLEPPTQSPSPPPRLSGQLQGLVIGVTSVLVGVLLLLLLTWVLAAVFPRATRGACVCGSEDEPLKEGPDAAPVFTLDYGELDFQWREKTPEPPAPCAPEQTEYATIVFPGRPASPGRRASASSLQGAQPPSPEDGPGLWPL
Put plainly: ligand blockade CELISA: mAb diluted from 23.2 µg/mL on CHO cells expressing canine PD-1, then cPD-L1-Fc-biotin, streptavidin-HRP; the signal is bound PD-L1. How it is done:
(§1) A cell-based ELISA (CELISA) assay based on the CHO cell line expressing canine PD-1 was used for mouse mAbs which react with canine PD-1 (cPD-1). Ligand blockade was confirmed using this assay in conjunction with biotinylated cPD-L1/Fc protein. Briefly, seed cPD-1 CHO cells were placed in 96-well plates at 4×10⁴ cells per well and the cells were incubated at 37° C. for 18-24 hours till they are 95-100% confluent. The cell culture media was aspirated off, and the plates were washed 3× with PBS+0.05% Tween20 and 1×CHO media. Three-fold serial dilutions were made of anti-cPD1 mAbs in CHO media, starting at 30 μg/mL, and 50 μL/well of each antibody dilution were added down the plate. The incubation was performed at 37° C., 5% CO₂ with shaking for 30 min. 50 μL/well of cPD-L1-Fc-biotin (2 μg/ml in CHO media stock) was added and the incubation at 37° C., 5% CO₂ was continued with shaking for 45 min. The plates were washed 6 times with PBS+0.05% Tween 20. 100 ul/well of Streptavidin-HRP (1:2000) in CHO media was added followed by a incubation for 30-60 min at 37° C./5% CO₂. The plates were washed 5 times with PBS+0.05% Tween20 and then 100 μl/well of TMB color developing substrate was added. The color development was stopped by adding 50 μl/well of 1M phosphoric acid. The optical density (O.D.) at A450-A620 was measured using an ELISA plate reader.

Assay [3] addresses T3, canine PD-1 antigen peptide GRDRRFRVM*RLPNGR (SEQ ID NO: 84) (canine).
T3 construct: The starred methionine has also been reported as a threonine
T3 peptide: GRDRRFRVMRLPNGR
Put plainly: ProImmune ProArray Ultra peptide microarray, fluorescent secondary antibody. How it is done: This library of overlapping peptides was designed to cover the full length canine PD-1 protein. The determination of peptide-antibody binding was performed by attachment of antibody samples to the ProArray Ultra® peptide microarray, followed by incubation with a fluorescent-labelled secondary antibody. All peptides are synthesized separately, and then bound to the ProArray Ultra® slide surface alongside ProImmune® murine IgG controls. This optimized process ensures that peptides are presented on the array in such a manner as to closely mimic the properties of the corresponding protein region, circumventing the inherent physiochemical variation of the free peptides themselves and making a compatible, combined peptide and protein array platform. […] After several washing steps, the ProArray Ultra® arrays were dried and scanned using a high-resolution fluorescence microarray scanning system. After scanning the fluorescent labelled ProArray Ultra® slides, the scanner recorded an image which was evaluated using image analysis software—enabling interpretation and quantification of the levels of fluorescent intensities associated with each fluorescent spot on the scanned microarray slide. The results of this experiment indicated some of the canine PD-1 peptides were recognized by some of the mAbs evaluated.

The target in assay [4] is T2, canine PD-1 expressed on CHO cells. Kind of assay: ligand blockade CELISA: mAb diluted from 54.8 µg/mL on CHO cells expressing canine PD-1, then cPD-L1-Fc-biotin, streptavidin-HRP; the signal is bound PD-L1. How it is done: as §1
Assay [5] shares this target. Kind of assay: CELISA on CHO cells expressing canine PD-1, mAb diluted from 30 ug/mL (x axis: log of dilution), HRP goat anti-mouse, TMB.
Assay [6] has the same target. Kind of assay: ligand blockade CELISA: mAb diluted from 30 ug/mL on CHO cells expressing canine PD-1, then cPD-L1-Fc-biotin, streptavidin-HRP; the signal is bound PD-L1. On the procedure: as §1

B1: 5G5 (antibody, V domains shown)
VH: EVQLQQSVAELVRPGASVKLSCTVSGFNIKNTYMHWVKQRPEQGLEWIGRIDPANVNTKYAPKFQGKATITTDTSSNTAYMQLSSLTSEDTAIYYCVLIFYDYDGDIDVWGTGTKVTVSS
VL: DIQMNQSPSSLSASLGDTITITCHASQNINVWLSWYQQKPGNIPKLLIYKASNLHTGVPSRFSGSGSGTDFTLTISSLQPEDIATYYCQQGQSYPLTFGAGTKLELK
notes: Mouse anti-canine PD-1 mAb; also called mAb 5G5; copies: 2 + 2
Turning to B1, the binding result in assay [1] was “binds”.

B2: Murine 2H9 (mouse anti-canine PD-1 monoclonal antibody) (antibody, V domains shown)
VH: B1 VH with V24A, V37I, D52A, N57D, T72A, S85T, F100Y, K115T
VL: B1 VL with K39R, N53H, D70G, Y94W
notes: Mouse hybridoma mAb purified on Protein G; also called mAb 2H9
Turning to B2, the binding result in assay [1], in assay [2] and in assay [3] was “binds” each time.

B3: mAb 2G9 (mouse anti-canine PD-1 monoclonal antibody) (antibody, V domains shown)
VH: QAYLQQSGAELVRPGASVKISCKASGYTFTRYNMHWVKQTPRQGLEWIGTIYPGYGDTSYNQKFKGKATLTVDISSSTAYMQLTSLTSEDSAVYFCSREFADDYPIPPFDYWGQGTTLTVSS
VL: DVLMTQTPLSLPVSLGDQASISCRSSQNIVHSNGNTYLEWYLQKPGQSPKLLIYKVSNRFSGVPDRFSGSGSGTDFTLKISRVEAEDLGIYYCFQGSHVPYTFGGGTKLEIK
notes: Mouse hybridoma mAb
On to B3, for which the binding result in assay [1] and in assay [4] was “binds” throughout.

B4: mAb 1B5 (mouse anti-canine PD-1 monoclonal antibody) (antibody, V domains shown)
VH: QIQLVQSGPELKKPGETVKISCKASGYTFTTYGMSWVKQAPGKGLKWMGWINIYSGIPTYADDFKGRFAFSLETSASTAYLQIDNLKNEDTATYFCARFDGPDYWGQGTTLTVSP
VL: DIVMTQSPSSLAMSVGQKVTMSCKSSQSLLNSVNQKNYLAWYQQKPGQSPKVLVYFASTRVSGVPDRFIGSGSGTDFTLTITSVQAEDLTTYLCQQYFSTPLTFGAGTKLEIK
notes: Mouse mAb; also called IBS
As for B4, the binding result in assay [5] is recorded as “binds”.

B5: 4D12 (antibody, V domains shown)
VH: B4 VH with I57M, A76V, D84N, P115S
VL: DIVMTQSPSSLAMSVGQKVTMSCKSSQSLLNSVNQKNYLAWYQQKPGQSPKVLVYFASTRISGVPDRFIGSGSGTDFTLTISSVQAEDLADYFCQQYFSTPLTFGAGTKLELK
notes: Mouse anti-canine PD-1 mAb; also called mAb 4D12; copies: 2 + 2
Regarding B5, the binding result in assay [1] and in assay [6] was “binds” in each case.

B6: Murine 3B6 (mouse anti-canine PD-1 monoclonal antibody) (antibody, V domains shown)
VH: B4 VH with P115S
VL: B4 VL with M13V, Q17R, T59A, T80A, T82S, L93F, I112L
notes: Mouse hybridoma mAb; also called mAb 3B6
Turning to B6, the binding result in assay [1] and in assay [5] was “binds” in each case.
